The results in this text go back to patent US20240228595A1.

The assay addresses SARS-COV-2 RBD-his tag protein (Sino Biological) (SARS-CoV-2) (UniProt P0DTC2). Put plainly: ELISA, SARS-CoV-2-WA-1 RBD coated, antibody titrated. For orientation: ELISA stands for enzyme-linked immunosorbent assay.

S309 (Sotrovimab) (antibody): the EC50 amounted to 2 ng/mL.

Usually EC50 stands for the concentration that produces a half-maximal response. The low end stands for a more potent agent, the high end for a less potent agent.
